Measurements as given in patent publication US20160311919A1.
pKd: −log10 of the molar value.

What was measured:
[1] = molecular target: GPNMB (CG56972), native full-length protein on the cell surface or in cell lysates (human) (UniProt Q14956); test: FACS, UACC-62 cells, Ab 1 ug/mL
[2] = molecular target: GPNMB (CG56972), native full-length protein on the cell surface or in cell lysates (human) (UniProt Q14956); test: flow cytometry on SK-MEL-2 cells, Anti Human IgG PE
[3] = molecular target: GPNMB-V5His (recombinant human GPNMB extracellular domain with C-terminal V5-His tag) (human) (UniProt Q14956); test: ELISA, coated GPNMB, Ab 1 ug/mL
[4] = molecular target: GPNMB-V5His (recombinant human GPNMB extracellular domain with C-terminal V5-His tag) (human) (UniProt Q14956); test: ELISA, coated GPNMB, Ab 3 ug/mL
[5] = molecular target: GPNMB-V5His (recombinant human GPNMB extracellular domain with C-terminal V5-His tag) (human) (UniProt Q14956); test: ELISA, coated GPNMB, Ab 333 ng/mL
[6] = molecular target: GPNMB-V5His (recombinant human GPNMB extracellular domain with C-terminal V5-His tag) (human) (UniProt Q14956); test: ELISA, coated GPNMB, Ab 111 ng/mL
[7] = molecular target: GPNMB-V5His (recombinant human GPNMB extracellular domain with C-terminal V5-His tag) (human) (UniProt Q14956); test: ELISA, coated GPNMB, Ab 37 ng/mL
[8] = molecular target: GPNMB-V5His (recombinant human GPNMB extracellular domain with C-terminal V5-His tag) (human) (UniProt Q14956); test: ELISA, coated GPNMB, Ab 12.3 ng/mL
[9] = molecular target: GPNMB-V5His (recombinant human GPNMB extracellular domain with C-terminal V5-His tag) (human) (UniProt Q14956); test: SPR (Biacore), mAb on protein A, GPNMB 880 nM
[10] = molecular target: GPNMB-V5His (recombinant human GPNMB extracellular domain with C-terminal V5-His tag) (human) (UniProt Q14956); test: ELISA, coated GPNMB, secondary antibody alone (column head 3 ug/mL)
[11] = molecular target: GPNMB (CG56972), native full-length protein on the cell surface or in cell lysates (human) (UniProt Q14956); test: flow cytometry on HEK293 cells transfected with GPNMB plasmid, secondary antibody alone; on empty-vector cells it prints 5.86
[12] = molecular target: GPNMB (CG56972), native full-length protein on the cell surface or in cell lysates (human) (UniProt Q14956); test: flow cytometry on HEK293 cells transfected with GPNMB plasmid, 10 µg/mL antibody, PE goat anti-human secondary; the same staining on empty-vector cells prints 7.96

GPNMB (CG56972), native full-length protein on the cell surface or in cell lysates (human), sequence (Q14956 23-492): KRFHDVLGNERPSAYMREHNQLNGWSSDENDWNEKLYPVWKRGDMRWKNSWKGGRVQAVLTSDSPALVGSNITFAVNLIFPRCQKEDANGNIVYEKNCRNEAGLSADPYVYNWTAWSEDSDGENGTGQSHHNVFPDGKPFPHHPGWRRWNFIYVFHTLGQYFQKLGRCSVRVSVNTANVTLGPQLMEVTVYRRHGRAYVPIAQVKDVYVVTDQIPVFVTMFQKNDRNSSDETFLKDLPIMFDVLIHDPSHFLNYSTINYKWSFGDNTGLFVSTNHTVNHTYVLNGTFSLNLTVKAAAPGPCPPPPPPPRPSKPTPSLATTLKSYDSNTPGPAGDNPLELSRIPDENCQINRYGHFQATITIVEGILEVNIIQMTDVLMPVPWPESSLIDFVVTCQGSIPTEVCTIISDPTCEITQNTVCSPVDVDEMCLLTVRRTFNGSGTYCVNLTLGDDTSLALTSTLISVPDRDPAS

Substance	Avg OD [3] [OD]	Avg OD [4] [OD]	Avg OD [5] [OD]	Avg OD [6] [OD]	also measured
CR011.2.6.2 (antibody)	–	–	–	–	Geo Mean Ratio (relative to pK16) [1]: 1.9
Control (antibody)	–	–	–	–	Geo Mean [2]: 3.03; Mean [2]: 3.54; Median [2]: 2.84
Irrelevant Antibody (Table 6)	0.008	0.009	0.012	0.013	–
Isotype control (Table 6) (antibody)	0.008	0.009	0.009	0.009	Avg OD [7]: 0.009 OD; Avg OD [8]: 0.011 OD
Mab1.15.1 (CR011), fully human IgG2 (antibody)	1.05	1.16	0.902	0.701	Avg OD [7]: 0.381 OD; pKd [9]: 7.28; Avg OD [8]: 0.168 OD
Secondary Ab control (Table 6) (antibody)	–	–	–	–	Avg OD [10]: 0.011 OD
Secondary Ab-PE (antibody)	–	–	–	–	Geometric Mean [11]: 7.69
isotype-matched control IgG2 antibody	–	–	–	–	Geometric Mean [12]: 8.63
